Measurements from patent publication US20150132317A1.

Target: ALK F1174L, human (human) (UniProt Q9UM73)
Assay: flow cytometry, SY5Y cells stained with isotype control

isotype control (antibody)
mean fluorescence intensity (MFI): 90
